Reference: the supplement of paper PMC7125110
± gives the standard error. Fewer inactive variants are shown than the library holds.

B1: glmS ribozyme (parent)
chain: AUAAAAGCGCCAGAACUACAGAAAUGUAGUUGACGAGGAGGAGGUUUAUCGAAUUUUCGGCGGAUGCCUCCAAA

Variants of: B1
Test: self-cleavage kobs at 2500 uM GlcN6P; higher = faster cleavage; RNA array
Conditions: with glucosamine-6-phosphate
Outline: (§1)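 Tiles bearing barcoded ribozyme variants, transcribed in situ by E. coli RNA polymerase on sequenced MiSeq chips, were imaged over ~14 h at 37 °C using a hybridised Cy3 probe. Glucosamine-6-phosphate was supplied at 40 μM to 10 mM in HEPES/KCl/Mg(OAc)2 buffer. kobs came from one- or two-exponential decay fits to normalised per-tile medians, and weighted Michaelis–Menten fits then provided kcat and KM.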

Variant	self-cleavage kobs at 2500 uM GlcN6P [s⁻¹]
C16U U31G G41C C67U	< 1e-05
A12G A53G U69C	0.000297 ± 0.00012
G13C A14G U46A	5.24e-05 ± 1.3e-05
A15G U46G G51C U55C G59A G63U	< 1e-05
C16G U30A C71U	0.000103 ± 3.5e-05
A14U U30G G38A U69G	0.00012 ± 5.3e-05
A12G A14C A64G	4.13e-05 ± 1.6e-05
A15G G35C G37C U49C	< 1e-05
C16G C34U A36C	< 1e-05
G13U G38C A53U	< 1e-05
A14U A15U C16U	5.74e-05 ± 2.3e-05
A14C U31C U54C	0.0014 ± 0.00039
C16U A39U U54G	0.00743 ± 0.0018
A14U C67A C71U	0.000265 ± 5.2e-05
A14U U56A G63A	< 1e-05
G13A A52C G60A	< 1e-05
A14U G29C G44U	< 1e-05
A15C U47C U55C	0.000237 ± 7.7e-05
C16G G29U A39U G51U C71U	< 1e-05
A14U U45C G60C G63C	< 1e-05

Variant	self-cleavage kobs at 2500 uM GlcN6P [s⁻¹]
A12G U54A U55G	0.000119 ± 4.5e-05
C16G G41U C50G	< 1e-05
A12C C16U A36C	< 1e-05
G13U A42C U69A	< 1e-05
A15C U31C U45A G59U U65A	< 1e-05
A12C A36G A42U U45A G51U	< 1e-05
A14C A42G G43U C70A	< 1e-05
A14C U31C U65A C70A	7.72e-05 ± 2.5e-05
A14C A33C U49A G66C	< 1e-05
G13U G29U U54G	8.58e-05 ± 2.4e-05
A12U G35A A52C C58G C68G	< 1e-05
A12G G63A	< 1e-05
C16A U46C U56C G63U C70U	< 1e-05
A12U C34A G35A U49G	< 1e-05
A14G G41C A42U	3.8e-05 ± 1.4e-05
G13A A64C C71U	< 1e-05
A14U A15U G40U	0.000122 ± 3.7e-05
A14C A15G C16U	4.99e-05 ± 1.9e-05
A14G A42G A52U	9.16e-05 ± 3.3e-05
A14C G40U U47C A53G C61A C70U	< 1e-05

Variants of: B1
Test: self-cleavage kobs at 10000 uM GlcN6P; higher = faster cleavage; RNA array
Conditions: with glucosamine-6-phosphate
Outline: as §1

Variant	self-cleavage kobs at 10000 uM GlcN6P [s⁻¹]
C16G G41U C50G	< 1e-05
A15C U31C U45A G59U U65A	< 1e-05
A12G G63A	< 1e-05
A14U A15U G40U	0.000149 ± 2.6e-05
